Reference: patent publication US20230183352A1 (published 2023)
Positions count from the first letter of the chain named.

B1: QP325 (Fc fusion)
chain: EVQLLESGGGLVQPGGSLRLSCAASGFTYGTYAMSWFRQAPGKGLEGVACIDIYGRTSYTDPVKGRFTISQDNSKNTLYLQMNSLRAEDTAVYYCAARDFGYCTASWVHEGFSRYWGQGTLVTVSS
notes: Humanization design of QP1166; VHH-Fc; also called 1166-V3; QD325; not shown: human IgG1-FC constant region fused to the C terminal of the VHH
B2: QP1166 (Fc fusion)
chain: QVQLVESGGDSVQPGGSLRLSCAASGFTYGTYAMSWFRQAPGKEREGVACIDIYGRTSYTDPVKGRFTISQDNAKNTLYLQMNSLKPEDTAMYYCAARDFGYCTASWVHEGFSRYWGQGTQVTVSS
notes: Chimeric antibody before humanization; also called QD1166; nanobody QP1166; not shown: Fc part: called chimeric antibody, cloned in vector VH-FC-pQD
B3: QP1162 (Fc fusion)
chain: B2 chain with D10G, P14S, T57A
notes: Chimeric antibody before humanization; also called QD1162; nanobody QP1162; not shown: Fc part: called chimeric antibody, cloned in vector VH-FC-pQD
B4: QP14641461 (antibody, human IgG1, kappa, V domains shown)
VH: EVQLVQSGAEVKKPGASVKVSCKASGYTFTSYIMHWVRQAPGQGLEWIGYINPYNDGTKYNEKFKGRVTLTRDKSTSTVYMELSSLRSEDTAVYYCARLGFTTRNAMDYWGQGTLVTVSS
VL: DIVMTQSPDSLAVSLGERATINCKSSQSLLNSGNQKNYLAWYQQKPGQPPKLLIYGASTRESGVPDRFTGSGSGTDFTLTISSLQAEDVAVYYCQNDHSYPFTFGQGTKLEIKR
notes: Humanized from QP207208
B5: QP14641462 (antibody, human IgG1, kappa, V domains shown)
VH: B4 VH
VL: B4 VL with L84V
notes: Humanized from QP207208
B6: QP14631461 (antibody, human IgG1, kappa, V domains shown)
VH: B4 VH with E1Q, I48M, L70M, K74T
VL: B4 VL
notes: also called QP14611463
B7: QP14651460 (antibody, human IgG1, kappa, V domains shown)
VH: B4 VH with R72S
VL: B4 VL with T69S
notes: Humanized from QP207208
B8: QP14641460 (antibody, human IgG1, kappa, V domains shown)
VH: B4 VH
VL: B4 VL with T69S
notes: Humanized from QP207208
B9: QP207208 (antibody, human IgG1, V domains shown)
VH: EVQLQQSGPELVKPGASVKMSCKASGYTFTSYIMHWVKQKPGQGLEWIGYINPYNDGTKYNEKFKGKATLTSDKSSSTVYMELSSLTSEDSAVYCCARLGFTTRNAMDYWGQGTSVTVSS
VL: DIVMTQSPSSLSVSAGEKVTMNCKSSQSLLNSGNQKNYLAWYQQKPGQPPKLLIYGASTRESGVPDRFTGSGSGTDFTLTISSVQAEDLAVYYCQNDHSYPFTFGSGTKLEIK
notes: Chimeric; also called 51A3; mouse-derived chimeric antibody QP207208

Tests used:
[1] = biological target: T1, PD-L1 Protein, Cynomolgus, Recombinant (His Tag) (cynomolgus); assay: SPR Biacore T200, antibody captured, PD-L1 His as analyte, 1:1 binding
T1 construct: Bought protein; also called QPP10.1; SinoBiologic 90251-C08H

[2] = biological target: T2, PD-L1 Protein, Human, Recombinant (His Tag) (human, UniProt Q9NZQ7 19-239); assay: as above
T2 construct: Bought protein; also called QPP09.1; SinoBiologic 10084-H08H
T2 sequence (Q9NZQ7 19-239 limits assumed): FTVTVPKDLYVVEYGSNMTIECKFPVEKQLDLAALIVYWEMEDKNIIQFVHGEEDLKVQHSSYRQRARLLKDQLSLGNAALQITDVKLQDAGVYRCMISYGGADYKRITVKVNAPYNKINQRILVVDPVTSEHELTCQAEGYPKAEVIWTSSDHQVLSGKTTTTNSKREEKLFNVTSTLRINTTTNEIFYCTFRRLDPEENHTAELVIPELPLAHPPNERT

[3] = biological target: T3, Claudin 18.2 (CLDN18.2), expressed on CHOS-CLDN 18.2 / HEK293-CLDN 18.2 / HCC827-CLDN 18.2 cells (human, UniProt P56856-2 1-261); assay: FACS, CHOS-CLDN18.2 cells
T3 construct: whole, on cells; The species is not repeated for the CHOS-CLDN 18.2 cells; also called claudin-18A2

[4] = biological target: T3, Claudin 18.2 (CLDN18.2), expressed on …; assay: FACS, CHOS-CLDN18.2 cells, 20 µg/ml
[5] = biological target: T3, Claudin 18.2 (CLDN18.2), expressed on …; assay: FACS, CHOS-CLDN18.2 cells, 1.250 µg/ml
[6] = biological target: T3, Claudin 18.2 (CLDN18.2), expressed on …; assay: FACS, CHOS-CLDN18.2 cells, 0.078 µg/ml
[7] = biological target: T3, Claudin 18.2 (CLDN18.2), expressed on …; assay: FACS, CHOS-CLDN18.2 cells, 0 µg/ml (background)
[8] = biological target: T3, Claudin 18.2 (CLDN18.2), expressed on …; assay: FACS, CHOS-CLDN18.2 cells, 0.313 µg/ml
[9] = biological target: T3, Claudin 18.2 (CLDN18.2), expressed on …; assay: FACS, CHOS-CLDN18.2 cells, 10 µg/ml
[10] = biological target: T3, Claudin 18.2 (CLDN18.2), expressed on …; assay: FACS, CHOS-CLDN18.2 cells, 5 µg/ml
[11] = biological target: T3, Claudin 18.2 (CLDN18.2), expressed on …; assay: FACS, CHOS-CLDN18.2 cells, 0.020 µg/ml
[12] = biological target: T3, Claudin 18.2 (CLDN18.2), expressed on …; assay: FACS, CHOS-CLDN18.2 cells, 0.005 µg/ml
[13] = biological target: T3, Claudin 18.2 (CLDN18.2), expressed on …; assay: FACS, MFI on CHOS-CLDN18.2 over MFI on CHOS-CLDN18.1, 10 µg/ml
[14] = biological target: T3, Claudin 18.2 (CLDN18.2), expressed on …; assay: cell-based or functional assay

Binder | Kd [1] [nM] | koff [1] [s⁻¹] | kon [1] [M⁻¹ s⁻¹] | Kd [2] [nM] | koff [2] [s⁻¹] | kon [2] [M⁻¹ s⁻¹] | EC50 [3] [µg/mL] | max [3] | FACS reading [4] | FACS reading [5] | FACS reading [6] | FACS reading [7] | FACS reading [8] | MFI [9] | FACS reading [10] | FACS reading [11] | FACS reading [12] | CLDN18.2/CLDN18.1 (MFI ratio) [13] | other results
B1 | 19.6 | 0.00416 | 212000 | 10.7 | 0.004 | 375000 | – | – | – | – | – | – | – | – | – | – | – | – | –
B2 | 5.6 | 0.00266 | 475000 | 2.63 | 0.00255 | 968000 | – | – | – | – | – | – | – | – | – | – | – | – | –
B3 | 5.6 | 0.00401 | 715000 | 2.77 | 0.00379 | 1.37e+06 | – | – | – | – | – | – | – | – | – | – | – | – | –
B4 | – | – | – | – | – | – | 0.165 | 166000 | 99500 | 160000 | 46300 | 732 | 97500 | 721000 | 166000 | 19900 | 5980 | 709 | –
B5 | – | – | – | – | – | – | 0.306 | 224000 | 117000 | 170000 | 29300 | 732 | 93600 | 758000 | 224000 | 15800 | 8450 | 718 | –
B6 | – | – | – | – | – | – | 0.156 | 227000 | 131000 | 201000 | 51400 | 732 | 144000 | 657000 | 227000 | 19300 | 7790 | 700 | EC50 of killing, ADCC (PBMC, HEK293-CLDN18.2 cells) [14]: 0.0115 µg/mL; Killing percentage, ADCC (PBMC, HEK293-CLDN18.2 cells), 0 µg/ml [14]: 4.88%; Killing percentage, ADCC (PBMC, HEK293-CLDN18.2 cells), 0.0001024 µg/ml [14]: 4.3%; Killing percentage, ADCC (PBMC, HEK293-CLDN18.2 cells), 0.000512 µg/ml [14]: 5.65%; Killing percentage, ADCC (PBMC, HEK293-CLDN18.2 cells), 0.00256 µg/ml [14]: 10.2%; Killing percentage, ADCC (PBMC, HEK293-CLDN18.2 cells), 0.0128 µg/ml [14]: 23.4%; Killing percentage, ADCC (PBMC, HEK293-CLDN18.2 cells), 0.064 µg/ml [14]: 39.3%; Killing percentage, ADCC (PBMC, HEK293-CLDN18.2 cells), 0.32 µg/ml [14]: 43.8%; Killing percentage, ADCC (PBMC, HEK293-CLDN18.2 cells), 1.6 µg/ml [14]: 43.4%; Killing percentage, ADCC (PBMC, HEK293-CLDN18.2 cells), 8 µg/ml [14]: 46.3%; Killing percentage, ADCC (PBMC, HEK293-CLDN18.2 cells), 40 µg/ml [14]: 28.6%
B7 | – | – | – | – | – | – | 0.186 | 189000 | 174000 | 219000 | 50300 | 732 | 134000 | 595000 | 189000 | 19600 | 7190 | 596 | –
B8 | – | – | – | – | – | – | 0.0936 | 191000 | 114000 | 146000 | 44300 | 732 | 151000 | 604000 | 191000 | 16200 | 6600 | 579 | –
B9 | – | – | – | – | – | – | 0.267 | 187000 | 117000 | 149000 | 24700 | 732 | 90200 | 627000 | 187000 | 11500 | 5090 | 476 | –
